The record followed here is the supplement of paper PMC5998384.

Data set [1] concerns HeLa Kyoto. Put plainly: solubility in G1/S (NP-40 vs SDS abundance) (log2 ratio); higher = more soluble. Conditions: cell cycle stage: G1/S.
The subject of data set [2] is HeLa Kyoto. Description: melting temperature (median over replicates), in situ; higher = more thermally stable.
The subject of data set [3] is HeLa Kyoto. Description: solubility change mitosis vs G1/S (difference of NP-40 vs SDS log2 ratios) (log2 ratio difference); higher = more soluble in mitosis.
Data set [4] has as its system HeLa Kyoto. Description: thermal stability score vs G1/S (z-score of summed log2 fold changes over temperatures); higher = more thermally stable than in G1/S.
Where [5] appears, read: cell cycle stage: early G1 (4.5 h after nocodazole release).
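Wherever melting temperature (median over replicates), in situ is given: HeLa Kyoto cells synchronized by double thymidine or nocodazole block, proteins quantified by TMT10plex mass spectrometry, three independent biological replicates.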
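Wherever solubility change mitosis vs G1/S (difference of NP-40 vs SDS log2 ratios) is given: synchronized HeLa Kyoto cells (double thymidine block for G1/S, nocodazole release for mitosis), protein amounts in NP-40 versus SDS lysates quantified by mass spectrometry, three biological replicates.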
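Wherever solubility in G1/S (NP-40 vs SDS abundance) is given: HeLa Kyoto cells arrested at G1/S by double thymidine block, proteins quantified by TMT10plex mass spectrometry in mild NP-40 versus SDS extracts, three biological replicates.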
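Wherever thermal stability score vs G1/S (z-score of summed log2 fold changes over temperatures) is given: synchronized HeLa Kyoto cells, proteins quantified by TMT10plex mass spectrometry, three biological replicates, mitosis taken 0.5 h after nocodazole release, G1/S directly after double thymidine block.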

Take “MAAAVGVRGRYELPPCSGPGWLLSLSALLSVAARGAFATTHWVVTEDGKIQQQVDSPMNLKHPHDLVILMRQEATVNYLKELEKQLVAQKIHIEENEDRDTGLEQRHNKEDPDCIKAKVPLGDLDLYDGTYITLESKDISPEDYIDTESPVPPDPEQPDCTKILELPYSIHAFQHLRGVQERVNLSAPLLPKEDPIFTYLSKRLGRSIDDIGHLIHEGLQKNTSSWVLYNMASFYWRIKNEPYQVVECAMRALHFSSRHNKDIALVNLANVLHRAHFSADAAVVVHAALDDSDFFTSYYTLGNIYAMLGEYNHSVLCYDHALQARPGFEQAIKRKHAVLCQQKLEQKLEAQHRSLQRTLNELKEYQKQHDHYLRQQEILEKHKLIQEEQILRNIIHETQMAKEAQLGNHQICRLVNQQHSLHCQWDQPVRYHRGDIFENVDYVQFGEDSSTSSMMSVNFDVQSNQSDINDSVKSSPVAHSILWIWGRDSDAYRDKQHILWPKRADCTESYPRVPVGGELPTYFLPPENKGLRIHELSSDDYSTEEEAQTPDCSITDFRKSHTLSYLVKELEVRMDLKAKMPDDHARKILLSRINNYTIPEEEIGSFLFHAINKPNAPIWLILNEAGLYWRAVGNSTFAIACLQRALNLAPLQYQDVPLVNLANLLIHYGLHLDATKLLLQALAINSSEPLTFLSLGNAYLALKNISGALEAFRQALKLTTKCPECENSLKLIRCMQFYPFLYNITSSVCSGTVVEESNGSDEMENSDETKMSEEILALVDEFQQAWPLEGFGGALEMKGRRLDLQGIRVLKKGPQDGVARSSCYGDCRSEDDEATEWITFQVKRVKKPKGDHKKTPGKKVETGQIENGHRYQANLEITGPKVASPGPQGKKRDYQRLGWPSPDECLKLRWVELTAIVSTWLAVSSKNIDITEHIDFATPIQQPAMEPLCNGNLPTSMHTLDHLHGVSNRASLHYTGESQLTEVLQNLGKDQYPQQSLEQIGTRIAKVLEKNQTSWVLSSMAALYWRVKGQGKKAIDCLRQALHYAPHQMKDVPLISLANILHNAKLWNDAVIVATMAVEIAPHFAVNHFTLGNVYVAMEEFEKALVWYESTLKLQPEFVPAKNRIQTIQCHLMLKKGRRSP [TTC17]”: in data set [1], the “solubility in G1/S (log2)” value was found to be 0.107. Further, the melting temperature in data set [2] (cell cycle stage: G1/S) turned out to be 54.8 °C; in data set [2] (cell cycle stage: mitosis) it was 56.8 °C. The “solubility change mitosis (log2)” value in data set [3] worked out at 0.0442. For the same sequence, the thermal stability score in data set [4] (setting [5]) was determined as 2.32; in data set [4] (cell cycle stage: mitosis) it was 2.24.

In the case of “MAAAVPQRAWTVEQLRSEQLPKKDIIKFLQEHGSDSFLAEHKLLGNIKNVAKTANKDHLVTAYNHLFETKRFKGTESISKVSEQVKNVKLNEDKPKETKSEETLDEGPPKYTKSVLKKGDKTNFPKKGDVVHCWYTGTLQDGTVFDTNIQTSAKKKKNAKPLSFKVGVGKVIRGWDEALLTMSKGEKARLEIEPEWAYGKKGQPDAKIPPNAKLTFEVELVDID [FKBP3]”, in data set [1], the “solubility in G1/S (log2)” value was determined as 0.57. In addition, the figures for the melting temperature in data set [2] (cell cycle stage: G1/S) and in data set [2] (cell cycle stage: mitosis) were 54.2 °C and 54.4 °C, respectively. The “solubility change mitosis (log2)” value in data set [3] amounted to 0.226. In addition, the results for the thermal stability score in data set [4] (setting [5]) and in data set [4] (cell cycle stage: mitosis) were 0.0401 and -2.71, respectively.

Turning to “MAAAVSSVVRRVEELGDLAQAHIQQLSEAAGEDDHFLIRASAALEKLKLLCGEEKECSNPSNLLELYTQAILDMTYFEENKLVDEDFPEDSSSQKVKELISFLSEPEILVKENNMHPKHCNLLGDELLECLSWRRGALLYMYCHSLTKRREWLLRKSSLLKKYLLDGISYLLQMLNYRCPIQLNEGVSFQDLDTAKLLSAGIFSDIHLLAMMYSGEMCYWGSKYCADQQPENHEVDTSVSGAGCTTYKEPLDFREVGEKILKKYVSVCEGPLKEQEWNTTNAKQILNFFHHRCN [C5ORF51]”, the “solubility in G1/S (log2)” value in data set [1] stood at 0.302. In addition, the melting temperature in data set [2] (cell cycle stage: G1/S) worked out at 49.5 °C; in data set [2] (cell cycle stage: mitosis), 49.9 °C. Also, the “solubility change mitosis (log2)” value in data set [3] is -0.0335. For the same sequence, the thermal stability score came to 0.411 in data set [4] (setting [5]) and 1.04 in data set [4] (cell cycle stage: mitosis).

As for “MAAAWGSSLTAATQRAVTPWPRGRLLTASLGPQARREASSSSPEAGEGQIRLTDSCVQRLLEITEGSEFLRLQVEGGGCSGFQYKFSLDTVINPDDRVFEQGGARVVVDSDSLAFVKGAQVDFSQELIRSSFQVLNNPQAQQGCSCGSSFSIKL [ISCA2]”, the “solubility in G1/S (log2)” value in data set [1] came to 0.276. The melting temperature amounted to 51.6 °C in data set [2] (cell cycle stage: G1/S) and 53.4 °C in data set [2] (cell cycle stage: mitosis). Moreover, the “solubility change mitosis (log2)” value in data set [3] is -0.123. Besides, the thermal stability score in data set [4] (setting [5]) was -1.26; in data set [4] (cell cycle stage: mitosis), -2.06.

Turning to “MAAAYLDPNLNHTPNSSTKTHLGTGMERSPGAMERVLKVFHYFESNSEPTTWASIIRHGDATDVRGIIQKIVDSHKVKHVACYGFRLSHLRSEEVHWLHVDMGVSSVREKYELAHPPEEWKYELRIRYLPKGFLNQFTEDKPTLNFFYQQVKSDYMLEIADQVDQEIALKLGCLEIRRSYWEMRGNALEKKSNYEVLEKDVGLKRFFPKSLLDSVKAKTLRKLIQQTFRQFANLNREESILKFFEILSPVYRFDKECFKCALGSSWIISVELAIGPEEGISYLTDKGCNPTHLADFTQVQTIQYSNSEDKDRKGMLQLKIAGAPEPLTVTAPSLTIAENMADLIDGYCRLVNGTSQSFIIRPQKEGERALPSIPKLANSEKQGMRTHAVSVSETDDYAEIIDEEDTYTMPSTRDYEIQRERIELGRCIGEGQFGDVHQGIYMSPENPALAVAIKTCKNCTSDSVREKFLQEALTMRQFDHPHIVKLIGVITENPVWIIMELCTLGELRSFLQVRKYSLDLASLILYAYQLSTALAYLESKRFVHRDIAARNVLVSSNDCVKLGDFGLSRYMEDSTYYKASKGKLPIKWMAPESINFRRFTSASDVWMFGVCMWEILMHGVKPFQGVKNNDVIGRIENGERLPMPPNCPPTLYSLMTKCWAYDPSRRPRFTELKAQLSTILEEEKAQQEERMRMESRRQATVSWDSGGSDEAPPKPSRPGYPSPRSSEGFYPSPQHMVQTNHYQVSGYPGSHGITAMAGSIYPGQASLLDQTDSWNHRPQEIAMWQPNVEDSTVLDLRGIGQVLPTHLMEERLIRQQQEMEEDQRWLEKEERFLKPDVRLSRGSIDREDGSLQGPIGNQHIYQPVGKPDPAAPPKKPPRPGAPGHLGSLASLSSPADSYNEGVKLQPQEISPPPTANLDRSNDKVYENVTGLVKAVIEMSSKIQPAPPEEYVPMVKEVGLALRTLLATVDETIPLLPASTHREIEMAQKLLNSDLGELINKMKLAQQYVMTSLQQEYKKQMLTAAHALAVDAKNLLDVIDQARLKMLGQTRPH [PTK2]”, in data set [1], the “solubility in G1/S (log2)” value was -0.0233. Moreover, the melting temperature came to 53 °C in data set [2] (cell cycle stage: G1/S) and 53.2 °C in data set [2] (cell cycle stage: mitosis). Besides, the “solubility change mitosis (log2)” value in data set [3] was -0.0593. The thermal stability score in data set [4] (setting [5]) was 0.562; in data set [4] (cell cycle stage: mitosis), 0.0674.
